We go through three molecules from article PMC7048817, “Structure of the processive human Pol δ holoenzyme” (Nature Communications, 2020).

Data set [1] concerns the molecule itself. The experiment in a line: SEC; HiLoad 16/600 Superdex 200 pg in PCNA storage buffer; 2 mg of each PCNA form in 250 μL, 1 mL/min; markers carbonic anhydrase (27 kDa) and conalbumin (75 kDa); monomers to trimer.
Data set [2] addresses T1, p125, catalytic subunit of human Pol δ (human, UniProt P28340 1-1107).
T1 construct: DNA polymerase delta catalytic subunit p125, human; Stood in the assay as a subunit of the Pol δ heterotetramer; source: Sf9 insect cells, coexpressed with p50, p66 and p12 (MultiBac baculovirus), purified as the heterotetramer
T1 sequence: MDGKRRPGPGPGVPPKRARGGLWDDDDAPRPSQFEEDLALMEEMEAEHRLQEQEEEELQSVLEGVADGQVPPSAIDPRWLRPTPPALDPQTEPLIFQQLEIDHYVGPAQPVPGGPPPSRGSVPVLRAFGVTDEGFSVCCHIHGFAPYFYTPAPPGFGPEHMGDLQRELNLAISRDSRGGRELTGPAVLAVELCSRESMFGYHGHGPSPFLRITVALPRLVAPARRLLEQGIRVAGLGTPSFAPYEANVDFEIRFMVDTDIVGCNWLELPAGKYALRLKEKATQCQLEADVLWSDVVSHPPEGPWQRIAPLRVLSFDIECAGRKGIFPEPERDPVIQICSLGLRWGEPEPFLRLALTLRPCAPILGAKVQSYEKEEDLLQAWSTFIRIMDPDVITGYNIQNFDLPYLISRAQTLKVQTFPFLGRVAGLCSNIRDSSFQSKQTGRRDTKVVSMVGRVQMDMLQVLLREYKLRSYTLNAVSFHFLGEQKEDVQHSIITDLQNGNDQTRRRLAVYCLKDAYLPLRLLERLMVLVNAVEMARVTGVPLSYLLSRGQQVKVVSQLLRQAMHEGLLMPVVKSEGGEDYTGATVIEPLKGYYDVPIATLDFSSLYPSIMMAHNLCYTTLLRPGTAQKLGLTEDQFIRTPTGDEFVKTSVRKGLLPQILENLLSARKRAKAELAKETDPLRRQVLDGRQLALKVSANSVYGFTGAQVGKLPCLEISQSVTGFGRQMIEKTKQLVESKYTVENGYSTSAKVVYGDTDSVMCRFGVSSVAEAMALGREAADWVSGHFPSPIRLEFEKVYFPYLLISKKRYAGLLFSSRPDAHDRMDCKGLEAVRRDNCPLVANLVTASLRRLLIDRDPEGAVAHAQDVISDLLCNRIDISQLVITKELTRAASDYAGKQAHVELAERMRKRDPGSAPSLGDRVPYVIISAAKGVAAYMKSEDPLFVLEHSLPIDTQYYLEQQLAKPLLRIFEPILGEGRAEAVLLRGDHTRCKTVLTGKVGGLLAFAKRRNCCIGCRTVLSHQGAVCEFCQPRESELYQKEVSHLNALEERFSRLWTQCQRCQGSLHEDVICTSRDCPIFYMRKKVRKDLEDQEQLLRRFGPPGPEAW
The experiment in a line: cryo-EM structure; Pol δ–DNA–PCNA–dTTP complex with 25/38 primer/template DNA (3' dideoxy terminator); 25 mM HEPES-KOH pH 7.5, 100 mM potassium acetate, 10 mM calcium chloride, 0.02% NP-40, 0.4 mM biotin, 1 mM DTT; 4.1 Å map from the sample frozen after mixing (conformers at 4.3, 4.9, 8.1 Å), 3.0 Å map from the gel-filtered sample in which FEN1 is invisible. The settings on record: both partners purified.

For data set [3], the target named is T2, p50, regulatory subunit of human Pol δ (human, UniProt P49005 1-469).
T2 construct: DNA polymerase delta subunit p50 (B-subunit), human; Stood in the assay as a subunit of the Pol δ heterotetramer; also called B-subunit; source: Sf9 insect cells, coexpressed with p125, p66 and p12 (MultiBac baculovirus), purified as the heterotetramer
The description is as above. The settings on record: both partners purified.

T2 sequence (P49005 whole entry, stated change not applied): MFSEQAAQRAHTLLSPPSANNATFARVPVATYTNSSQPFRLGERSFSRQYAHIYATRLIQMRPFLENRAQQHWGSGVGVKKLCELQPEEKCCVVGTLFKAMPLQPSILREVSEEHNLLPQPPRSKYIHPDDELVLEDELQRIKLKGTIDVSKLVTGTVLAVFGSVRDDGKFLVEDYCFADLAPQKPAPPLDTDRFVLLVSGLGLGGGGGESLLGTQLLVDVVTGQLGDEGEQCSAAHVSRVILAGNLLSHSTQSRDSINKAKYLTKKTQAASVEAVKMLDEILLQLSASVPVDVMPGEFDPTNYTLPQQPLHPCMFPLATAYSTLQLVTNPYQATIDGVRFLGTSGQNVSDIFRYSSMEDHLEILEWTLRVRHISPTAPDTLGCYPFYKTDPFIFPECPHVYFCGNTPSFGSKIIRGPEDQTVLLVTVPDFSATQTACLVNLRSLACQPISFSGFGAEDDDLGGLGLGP

B1: DLDV-PCNA (PCNA D120A, L121A, D122A, V123E) (natural protein, human, UniProt P12004 1-261, looked up)
chain: MFEARLVQGSILKKVLEALKDLINEACWDISSSGVNLQSMDSSHVSLVQLTLRSEGFDTYRCDRNLAMGVNLTSMSKILKCAGNEDIITLRAEDNADTLALVFEAPNQEKVSDYEMKLMAAAEEQLGIPEQEYSCVVKMPSGEFARICRDLSHIGDAVVISCAKDGVKFSASGELGNGNIKLSQTSNVDKEEEAVTIEMNEPVQLTFALRYLNFFTKATPLSSTVTLSMSADVPLVVEYKIADMGHLKYYLAPKIEDEEGS
notes: proliferating cell nuclear antigen, human, full length, with D120A, L121A, D122A and V123E; source: E. coli BL21 (DE3), purified (HisTrap, HiTrap Q, Superdex 200)
Take B1: the “stoichiometry N” value in data set [1] is 3.

B2: p12, regulatory subunit of human Pol δ (natural protein)
chain: GRKRLITDSYPVVKRREGPAGHSKGELAPELGEEPQPRDEEEAELELLRQFDLAWQYGPCTGITRLQRWCRAKQMGLEPPPEVWQVLKTHPGDPRFQCSLWHLYPL
notes: Stood in the assay as a subunit of the Pol δ heterotetramer; source: Sf9 insect cells, coexpressed with p125, p50 and p66 (MultiBac baculovirus), purified as the heterotetramer
For the molecule B2, the binding result in data set [2] and in data set [3] was “binds” each time.

B3: p66, regulatory subunit of human Pol δ (natural protein)
chain: ADQLYLENIDEFVTDQNKIVTYKWLSYTLGVHVNQAKQMLYDYVERKRKENSGAQLHVTYLVSGSLIQNGHSCHKVAVVREDKLEAVKSKLAVTASIHVYSIQKAMLKDSGPLFNTDYDILKSNLQNCSKFSAIQCAAAVPRAPAESSSSSKKFEQSHLHMSSETQANNELTTNGHGPPASKQVSQQPKGIMGMFASKAAAKTQETNKETKTEAKEVTNASAAGNKAPGKGNMMSNFFGKAAMNKFKVNLDSEQAVKEEKIVEQPTVSVTEPKLATPAGLKKSSKKAEPVKVLQKEKKRGKRVALSDDETKETENMRKKRRRIKLPESDSSEDEVFPDSPGAYEAESPSPPPPPSPPLEPVPKTEPEPPSVKSSSGENKRKRKRVLKSKTYLDGEGCIVTEKVYESESCTDSEEELNMKTSSVHRPPAMTVKKEPREERKGPKKGTAALGKANRQVSITGFFQRK
notes: DNA polymerase delta subunit p66, human; last visible residue in the map is Ala144; Stood in the assay as a subunit of the Pol δ heterotetramer; also called p66N (its visible N-terminal part); source: Sf9 insect cells, coexpressed with p125, p50 and p12 (MultiBac baculovirus), purified as the heterotetramer
B3: the binding result in data set [3] is on record as “binds”.
